# Measured values: the supplement of paper PMC3353916
# ± gives the standard deviation of the averaged measurements.
# System: Sindbis virus TE/5'2J-GFP
# Assay: percent infected (GFP+ in RFP+ ISG-expressing cells); higher = more infection (less antiviral activity)
# Description: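 Confirmatory testing of 87 ISGs. Triplicate wells of BHK/HA-Zeo (control) or BHK/NZAP-Zeo (ZAP) cells were transduced with lentiviruses co-expressing a human ISG plus TagRFP, then infected 48 h later with SINV TE/5'2J-GFP (moi 5). The % GFP+ cells among RFP+ cells was measured by flow cytometry at 8 h post infection. Fluc lentivirus served as control. Three independent experiments.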
# [1] = experiment: confirmatory screen 1, BHK/HA-Zeo (control)
# [2] = experiment: confirmatory screen 1, BHK/NZAP-Zeo (ZAP)
# [3] = experiment: confirmatory screen 2, BHK/HA-Zeo (control)
# [4] = experiment: confirmatory screen 2, BHK/NZAP-Zeo (ZAP)
# [5] = experiment: confirmatory screen 3, BHK/HA-Zeo (control)
# [6] = experiment: confirmatory screen 3, BHK/NZAP-Zeo (ZAP)
# 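Further: Interferon-defective BHK-21 derivatives, ZAP line overexpressing the rat ZAP N-terminal zinc finger domain fused to Zeocin resistance, GFP scored within live singlet TagRFP+ cells.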
Substance,percent infected [1] [%],percent infected [2] [%],percent infected [3] [%],percent infected [4] [%],percent infected [5] [%],percent infected [6] [%]
MELRSYQWEVIMPALEGKNIIIWLPTGAGKTRAAAYVAKRHLETVDGAKVVVLVNRVHLVTQHGEEFRRMLDGRWTVTTLSGDMGPRAGFGHLARCHDLLICTAELLQMALTSPEEEEHVELTVFSLIVVDECHHTHKDTVYNVIMSQYLELKLQRAQPLPQVLGLTASPGTGGASKLDGAINHVLQLCANLDTWCIMSPQNCCPQLQEHSQQPCKQYNLCHRRSQDPFGDLLKKLMDQIHDHLEMPELSRKFGTQMYEQQVVKLSEAAALAGLQEQRVYALHLRRYNDALLIHDTVRAVDALAALQDFYHREHVTKTQILCAERRLLALFDDRKNELAHLATHGPENPKLEMLEKILQRQFSSSNSPRGIIFTRTRQSAHSLLLWLQQQQGLQTVDIRAQLLIGAGNSSQSTHMTQRDQQEVIQKFQDGTLNLLVATSVAEEGLDIPHCNVVVRYGLLTNEISMVQARGRARADQSVYAFVATEGSRELKRELINEALETLMEQAVAAVQKMDQAEYQAKIRDLQQAALTKRAAQAAQRENQRQQFPVEHVQLLCINCMVAVGHGSDLRKVEGTHHVNVNPNFSNYYNVSRDPVVINKVFKDWKPGGVISCRNCGEVWGLQMIYKSVKLPVLKVRSMLLETPQGRIQAKKWSRVPFSVPDFDFLQHCAENLSDLSLD [DHX58],95 ± 1.5,75.7 ± 2.1,95.81 ± 0.69,95.7 ± 0.2,94.51 ± 0.49,94.61 ± 0.18
MERISAFFSSIWDTILTKHQEGIYNTICLGVLLGLPLLVIITLLFICCHCCWSPPGKRGQQPEKNKKKKKKKKKKDEEDLWISAQPKLLQMEKRPSLPV [KIAA0040],93.9 ± 2.6,62.7 ± 0.84,96.75 ± 0.12,95.133 ± 0.042,87.2 ± 1.7,87.8 ± 1.6
MSLRGSLSRLLQTRVHSILKKSVHSVAVIGAPFSQGQKRKGVEHGPAAIREAGLMKRLSSLGCHLKDFGDLSFTPVPKDDLYNNLIVNPRSVGLANQELAEVVSRAVSDGYSCVTLGGDHSLAIGTISGHARHCPDLCVVWVDAHADINTPLTTSSGNLHGQPVSFLLRELQDKVPQLPGFSWIKPCISSASIVYIGLRDVDPPEHFILKNYDIQYFSMRDIDRLGIQKVMERTFDLLIGKRQRPIHLSFDIDAFDPTLAPATGTPVVGGLTYREGMYIAEEIHNTGLLSALDLVEVNPQLATSEEEAKTTANLAVDVIASSFGQTREGGHIVYDQLPTPSSPDESENQARVRI [ARG2],93.279 ± 0.073,64 ± 4.9,95.82 ± 0.36,95.52 ± 0.29,92.68 ± 0.49,93.532 ± 0.087
MGAQLCFEANAKAPREALRFHAEAKGAQVRLDTRGCIAHRRTTFHDGIVFSQRPVRLGERVALRVLREESGWCGGLRVGFTRLDPACVSVPSLPPFLCPDLEEQSPTWAAVLPEGCALTGDLVRFWVDRRGCLFAKVNAGCRLLLREGVPVGAPLWAVMDVYGTTKAIELLDPTASRLPTPMPWDLSNKAVPEPKATPGEECAICFYHAANTRLVPCGHTYFCRYCAWRVFSDTAKCPVCRWQIEAVAPAQGPPALRVEEGS [LINCR],97.12 ± 0.12,85 ± 1.6,94.5 ± 0.3,94.39 ± 0.54,91.97 ± 0.65,93.27 ± 0.19
ABTB2,94.03 ± 0.73,63.5 ± 5.5,94.02 ± 0.29,95.3 ± 0.29,93.9 ± 2,94.69 ± 0.42
MNMTQARVLVAAVVGLVAVLLYASIHKIEEGHLAVYYRGGALLTSPSGPGYHIMLPFITTFRSVQTTLQTDEVKNVPCGTSGGVMIYIDRIEVVNMLAPYAVFDIVRNYTADYDKTLIFNKIHHELNQFCSAHTLQEVYIELFDQIDENLKQALQKDLNLMAPGLTIQAVRVTKPKIPEAIRRNFELMEAEKTKLLIAAQKQKVVEKEAETERKKAVIEAEKIAQVAKIRFQQKVMEKETEKRISEIEDAAFLAREKAKADAEYYAAHKYATSNKHKLTPEYLELKKYQAIASNSKIYFGSNIPNMFVDSSCALKYSDIRTGRESSLPSKEALEPSGENVIQNKESTG [ERLIN1],94.6 ± 1.8,79.2 ± 1.4,95.84 ± 0.41,94.53 ± 0.57,91.74 ± 0.47,91.63 ± 0.7
MPVERMRMRPWLEEQINSNTIPGLKWLNKEKKIFQIPWMHAARHGWDVEKDAPLFRNWAIHTGKHQPGVDKPDPKTWKANFRCAMNSLPDIEEVKDKSIKKGNNAFRVYRMLPLSERPSKKGKKPKTEKEDKVKHIKQEPVESSLGLSNGVSDLSPEYAVLTSTIKNEVDSTVNIIVVGQSHLDSNIENQEIVTNPPDICQVVEVTTESDEQPVSMSELYPLQISPVSSYAESETTDSVPSDEESAEGRPHWRKRNIEGKQYLSNMGTRGSYLLPGMASFVTSNKPDLQVTIKEESNPVPYNSSWPPFQDLPLSSSMTPASSSSRPDRETRASVIKKTSDITQARVKSC [IRF2],81 ± 3.7,2.58 ± 0.4,94.34 ± 0.74,60.4 ± 1.6,89.4 ± 1.2,39.2 ± 2.8
MATERSRSAMDSPVPASMFAPEPSSPGAARAAAAAARLHGGFDSDCSEDGEALNGEPELDLTSKLVLVSPTSEQYDSLLRQMWERMDEGCGETIYVIGQGSDGTEYGLSEADMEASYATVKSMAEQIEADVILLRERQEAGGRVRDYLVRKRVGDNDFLEVRVAVVGNVDAGKSTLLGVLTHGELDNGRGFARQKLFRHKHEIESGRTSSVGNDILGFDSEGNVVNKPDSHGGSLEWTKICEKSTKVITFIDLAGHEKYLKTTVFGMTGHLPDFCMLMVGSNAGIVGMTKEHLGLALALNVPVFVVVTKIDMCPANILQETLKLLQRLLKSPGCRKIPVLVQSKDDVIVTASNFSSERMCPIFQISNVTGENLDLLKMFLNLLSPRTSYREEEPAEFQIDDTYSVPGVGTVVSGTTLRGLIKLNDTLLLGPDPLGNFLSIAVKSIHRKRMPVKEVRGGQTASFALKKIKRSSIRKGMVMVSPRLNPQASWEFEAEILVLHHPTTISPRYQAMVHCGSIRQTATILSMDKDCLRTGDKATVHFRFIKTPEYLHIDQRLVFREGRTKAVGTITKLLQTTNNSPMNSKPQQIKMQSTKKGPLTKRDEGGPSGGPAVGAPPPGDEASSVGAGQPAASSNLQPQPKPSSGGRRRGGQRHKVKSQGACVTPASGC [GTPBP1],93.61 ± 0.15,64.4 ± 7.3,97.42 ± 0.24,96.28 ± 0.23,88.74 ± 0.67,90.6 ± 0.93
MKEDCLPSSHVPISDSKSIQKSELLGLLKTYNCYHEGKSFQLRHREEEGTLIIEGLLNIAWGLRRPIRLQMQDDREQVHLPSTSWMPRRPSCPLKEPSPQNGNITAQGPSIQPVHKAESSTDSSGPLEEAEEAPQLMRTKSDASCMSQRRPKCRAPGEAQRIRRHRFSINGHFYNHKTSVFTPAYGSVTNVRVNSTMTTLQVLTLLLNKFRVEDGPSEFALYIVHESGERTKLKDCEYPLISRILHGPCEKIARIFLMEADLGVEVPHEVAQYIKFEMPVLDSFVEKLKEEEEREIIKLTMKFQALRLTMLQRLEQLVEAK [RASSF4],80.1 ± 2.3,56.3 ± 1.3,94.73 ± 0.66,94.93 ± 0.39,89.1 ± 0.9,89.9 ± 1.3
UBE2L6,95.97 ± 0.92,78.8 ± 2.3,96.37 ± 0.3,95.27 ± 0.14,94.34 ± 0.69,93.02 ± 0.28
